Laboratory results: publication PMC7463755, “C7-Prenylation of Tryptophan-Containing Cyclic Dipeptides by 7-Dimethylallyl Tryptophan Synthase Significantly Increases the Anticancer and Antimicrobial Activities” (Molecules, 2020)

Key:
Experiment in all cases: HPLC product formation, Michaelis-Menten
Type in all cases: biochemical, Aspergillus fumigatus
[1] = substrate: [H][C@@]12CCCN1C(=O)[C@H](Cc1c[nH]c3ccccc13)NC2=O; details: 2 mM DMAPP, 5 mM CaCl2, 37 °C, prenyl acceptor
Source text: (§1) HPLC product formation, Michaelis-Menten on 7-DMATS (7-dimethylallyl tryptophan synthase)

[2] = substrate: O=C1N[C@@H](Cc2c[nH]c3ccccc23)C(=O)N[C@H]1Cc1c[nH]c2ccccc12; details: 2 mM DMAPP, 5 mM CaCl2, 37 °C, prenyl acceptor
Source text: as §1

[3] = substrate: O=C1N[C@@H](Cc2c[nH]c3ccccc23)C(=O)N[C@H]1Cc1ccc(O)cc1; details: 2 mM DMAPP, 5 mM CaCl2, 37 °C, prenyl acceptor
Source text: as §1

[4] = substrate: O=C1N[C@@H](Cc2c[nH]c3ccccc23)C(=O)N[C@H]1Cc1ccccc1; details: 2 mM DMAPP, 5 mM CaCl2, 37 °C, prenyl acceptor
Source text: as §1

[5] = substrate: C[C@@H]1NC(=O)[C@H](Cc2c[nH]c3ccccc23)NC1=O; details: 2 mM DMAPP, 5 mM CaCl2, 37 °C, prenyl acceptor
Source text: as §1

[6] = substrate: CC(C)=CCOP(=O)(O)OP(=O)(O)O; details: 1 mM 1a (cyclo-L-Trp-Gly), 5 mM CaCl2, 37 °C, prenyl donor
Source text: as §1

[7] = substrate: O=C1CNC(=O)[C@H](Cc2c[nH]c3ccccc23)N1; details: 2 mM DMAPP, 5 mM CaCl2, 37 °C, prenyl acceptor
Source text: as §1

[8] = substrate: CC(C)C[C@@H]1NC(=O)[C@H](Cc2c[nH]c3ccccc23)NC1=O; details: 2 mM DMAPP, 5 mM CaCl2, 37 °C, prenyl acceptor
Source text: as §1

B1: 7-DMATS (7-dimethylallyl tryptophan synthase) (Aspergillus fumigatus Af293) (protein)
chain: MSIGAEIDSLVPAPPGLNGTAAGYPAKTQKELSNGDFDAHDGLSLAQLTPYDVLTAALPLPAPASSTGFWWRETGPVMSKLLAKANYPLYTHYKYLMLYHTHILPLLGPRPPLENSTHPSPSNAPWRSFLTDDFTPLEPSWNVNGNSEAQSTIRLGIEPIGFEAGAAADPFNQAAVTQFMHSYEATEVGATLTLFEHFRNDMFVGPETYAALRAKIPEGEHTTQSFLAFDLDAGRVTTKAYFFPILMSLKTGQSTTKVVSDSILHLALKSEVWGVQTIAAMSVMEAWIGSYGGAAKTEMISVDCVNEADSRIKIYVRMPHTSLRKVKEAYCLGGRLTDENTKEGLKLLDELWRTVFGIDDEDAELPQNSHRTAGTIFNFELRPGKWFPEPKVYLPVRHYCESDMQIASRLQTFFGRLGWHNMEKDYCKHLEDLFPHHPLSSSTGTHTFLSFSYKKQKGVYMTMYYNLRVYST
notes: recombinant, overproduced in E. coli and purified as in Kremer et al; vector pQE60 named
With B1 the Km [1] was 880.1 µM, the Vmax [1] was 0.0228 µM/min and the kcat [1] was 0.0205 s⁻¹. It also gave a kcat/Km [1] of 23.3 M⁻¹ s⁻¹, a Km [2] of 225.8 µM and a Vmax [2] of 0.0459 µM/min. The kcat [2] was 0.0413 s⁻¹, the kcat/Km [2] was 183 M⁻¹ s⁻¹ and the Km [3] was 562.4 µM. For the same protein, the Vmax [3] was 0.0515 µM/min, the kcat [3] was 0.0464 s⁻¹ and the kcat/Km [3] was 82.4 M⁻¹ s⁻¹. The Km [4] was 102.9 µM, the Vmax [4] was 0.0359 µM/min and the kcat [4] was 0.0323 s⁻¹. The kcat/Km [4] was 314 M⁻¹ s⁻¹, the Km [5] was 867.8 µM and the Vmax [5] was 0.0141 µM/min. The kcat [5] was 0.0127 s⁻¹, the kcat/Km [5] was 14.6 M⁻¹ s⁻¹ and the Km [6] was 79.6 µM. The Vmax [6] was 0.072 µM/min, the kcat [6] was 0.0693 s⁻¹ and the kcat/Km [6] was 871 M⁻¹ s⁻¹. The Km [7] was 169.7 µM, the Vmax [7] was 0.145 µM/min and the kcat [7] was 0.131 s⁻¹. For the same protein, the kcat/Km [7] was 770 M⁻¹ s⁻¹, the Km [8] was 823.2 µM and the Vmax [8] was 0.0654 µM/min. For the same protein, the kcat [8] was 0.0586 s⁻¹ and the kcat/Km [8] was 71.2 M⁻¹ s⁻¹.
